In the data set the target is T1, OsBIHD1 207-527 (HD domain) (Oryza sativa (rice; Pik-H4 NIL?), UniProt Q6QUW0 207-527).
T1 sequence: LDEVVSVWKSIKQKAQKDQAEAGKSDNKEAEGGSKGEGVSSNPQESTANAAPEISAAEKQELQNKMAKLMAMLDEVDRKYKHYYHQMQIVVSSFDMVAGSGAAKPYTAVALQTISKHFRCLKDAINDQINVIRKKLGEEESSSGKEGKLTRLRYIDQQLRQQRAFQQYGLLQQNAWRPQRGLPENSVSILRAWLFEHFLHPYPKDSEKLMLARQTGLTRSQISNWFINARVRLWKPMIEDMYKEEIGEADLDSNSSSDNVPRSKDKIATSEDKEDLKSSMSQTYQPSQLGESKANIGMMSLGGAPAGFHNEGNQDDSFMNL
Nature of the data set: EMSA; EMSA: 25 C, 30 min, binding buffer of Beyotime Chemiluminescent EMSA Kit GS009 (composition, salt and pH not stated); 10% polyacrylamide gel, 0.5x TBE. Conditions: protein: recombinant; tags: His (pET28a); label: biotin 3'. (In general: A gel shift assay detects complexes by their altered migration in electrophoresis.)

B1: OsACO3 promoter TGTCA probe (dsDNA)
DNA 1: AAATTCTGTCATCATCA
DNA 2: TGATGATGACAGAATTT
For the molecule B1, the binding result is listed as “binds”.

B2: CYP734A2 promoter TGTCA probe (dsDNA)
DNA 1: TGCATTGTCAGTTAC
DNA 2: GTAACTGACAATGCA
As to B2, the binding result is on record as “binds”.

These data come from PMC5292422, “NBS-LRR Protein Pik-H4 Interacts with OsBIHD1 to Balance Rice Blast Resistance and Growth by Coordinating Ethylene-Brassinosteroid Pathway”.
